Consider eleven molecules from US20240043563A1 (SHANGHAI MABGEEK BIOTECH, published 2024).

Experiment [1] concerns the target T1, human MASP-2 of human serum (human, UniProt O00187 16-686). The experiment is described as follows: cell-based or functional assay.
Experiment [2] deals with T1, human MASP-2 of human serum. Description: cell-based or functional assay. This is another data set of the same source.
The target of experiment [3] is cynomolgus monkey MASP-2 of cynomolgus monkey serum (cynomolgus monkey). The experiment is described as follows: cell-based or functional assay.
In experiment [4] the target is T1, human MASP-2 of human serum. The experiment is described as follows: cell-based or functional assay. This is another data set of the same source.
The target in another experiment is Fc-cyno-MASP-2-CCS (human; cynomolgus monkey, UniProt P01857 119-329 = IgG part). The experiment is described as follows: ELISA, plate coated with 1 ug/mL Fc-cyno-MASP-2-CCS. The method, then: The titer was tested by ELISA: an ELISA plate was coated with the Fc-hMASP-2A-CCS or Fc-hMASP-2-CCS antigen at a concentration of 1 μg/mL, 100 μL per well, and coated overnight at 4° C. The plate was washed twice with PBST (PBS containing 0.5% Tween-20) and then pat-dried. Each well was blocked with 200 μL of coating solution containing 1% BSA, blocked at room temperature for 4 hours, pat-dried, and stored in a refrigerator at −20° C. for use. During testing, 100 μL of mouse serum at different concentrations was added to each well of the ELISA plate, with two replicate wells for each concentration, and the plate was incubated at room temperature for 1.5 hours. The plate was washed three times with PBST and then pat-dried. 100 μL of HRP-labeled rabbit anti-mouse Ig antibody (purchased from Sigma) diluted with PBST by 1:10000 was added, and the plate was incubated at room temperature for 1 hour. The plate was washed three times with PBST and then pat-dried. 100 μL of chromogenic solution was added to each well (ELISA chromogenic solution A was mixed with chromogenic solution B at a volume ratio of 1:1 before use) for a chromogenic reaction, and then 100 μL of 2 M H₂SO₄ stopping solution was added to each well to terminate the reaction. The OD value of each well was immediately measured at 450 nm with a microplate reader (Molecular Device).
Murine anti-human MASP-2 monoclonal antibodies were purified by a Protein G affinity chromatography column, and then quantified by BCA method. The EC50 of anti-human MASP-2 monoclonal antibody binding to Fc-hMASP-2A-CCS or Fc-cyno-MASP-2-CCS was tested by ELISA. The testing method can refer to Example 2. A 96-well ELISA plate was coated with 1 μg/mL of Fc-hMASP-2A-CCS or Fc-cyno-MASP-2-CCS, and then added with murine anti-human MASP-2 monoclonal antibodies at different concentrations for testing.

T1 sequence (O00187 16-686 limits assumed): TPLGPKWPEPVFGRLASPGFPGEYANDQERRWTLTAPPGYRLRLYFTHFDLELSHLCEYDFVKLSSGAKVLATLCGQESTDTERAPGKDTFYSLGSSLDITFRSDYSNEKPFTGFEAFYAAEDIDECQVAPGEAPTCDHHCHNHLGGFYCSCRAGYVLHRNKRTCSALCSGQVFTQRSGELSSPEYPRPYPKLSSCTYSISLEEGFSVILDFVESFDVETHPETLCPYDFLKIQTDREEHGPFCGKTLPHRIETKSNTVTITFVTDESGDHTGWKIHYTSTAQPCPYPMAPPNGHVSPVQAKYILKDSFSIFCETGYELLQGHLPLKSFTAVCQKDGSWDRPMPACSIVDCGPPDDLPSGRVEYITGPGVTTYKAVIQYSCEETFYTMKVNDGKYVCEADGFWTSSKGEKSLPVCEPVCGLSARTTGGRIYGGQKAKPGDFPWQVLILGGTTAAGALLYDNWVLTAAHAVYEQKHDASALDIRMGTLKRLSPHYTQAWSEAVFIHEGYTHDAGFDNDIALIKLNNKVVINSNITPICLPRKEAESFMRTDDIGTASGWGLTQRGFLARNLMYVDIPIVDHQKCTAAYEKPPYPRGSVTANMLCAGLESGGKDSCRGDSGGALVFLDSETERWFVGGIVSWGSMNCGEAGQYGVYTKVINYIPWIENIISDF

B1: murine anti-human MASP-2 monoclonal antibody 115 (antibody, V domains shown)
VH: DVQLVESGGGLVQPGGSRKLSCAASGFTFSSFGMHWVRQAPEKGLEWVAYISSGSSSFFYADTVKGRFTISRDNPKNTLFLQMTSLRSEDTAMYYCARGDRNFDVWGAGTTVTVSS
VL: DIVLTQSPASLAVSLGQRATISCRASQSVTSSRYSYMHWFQQKPGQPPNLLIKHASNLESGVPARFSGSGSGTDFTLNIHPVEEDDTATYYCQHSWEVPWTFGGGTKLEIK
In the case of B1, in experiment [1], the “IC50 of inhibition of MASP-2-catalyzed C4 cleavage (4% human serum, C4b ELISA)” value (“IC50 of inhibition … (4% human serum, C4b ELISA)” for short) was determined as 0.0826 nM.

B2: murine anti-human MASP-2 monoclonal antibody 126 (antibody, V domains shown)
VH: DVQLVESGGGLVQPGGSRKLSCVASGFTFSSFGMHWVRQAPEKGLEWVAYISSGSSSSFYVDTVKGRFTISRDNPKNTLFLQMTSLRSEDTAMYYCARGDRNFEVWGAGTTVTVSS
VL: DIVLTQSPASLAVSLGQRATISCRASQSVSSSRYSYMHWFQQKPGQPPNLLIKHASNLESGVPARFSGSGSGTDFTLNIHPVEEEDTATYYCQQSWEVPWTFGGGTKLEIK
On to B2, for which the “IC50 of inhibition … (4% human serum, C4b ELISA)” value in experiment [1] came to 0.0774 nM.

B3: humanized anti-human MASP-2 monoclonal antibody 124-Hu (antibody, human IgG4 S228P, kappa, V domains shown)
VH: QVQLQESGPGLVKPSQTLSLTCTVSGYSITSDYAWNWIRQPPGKGLEWMGYISYSGRTSYNPSLKSRLTISRDTSKNQFSLKLSSVTAADTAVYYCARHYGDFWGQGTTVTVSS
VL: DIQMTQSPSSLSASVGDRVTITCKASQNVDTNVAWYQQKPGKAPKLLIYSASYRYSGVPSRFSGSGSGTDFTLTISSLQPEDFATYYCQQYNSYPSTFGQGTKLEIKR
As for B3, in experiment [2], the “IC50 of inhibition of MASP-2-catalyzed C4 cleavage in 90% human serum” value turned out to be 3.75 nM and the “IC50 of inhibition of MASP-2-mediated C3b production (4% C1q-removed human serum)” value was 1.14 nM. Moreover, the “IC50 of inhibition of MASP-2-catalyzed C4 cleavage in 90% cynomolgus monkey serum” value in experiment [3] was 168 nM. Also, in experiment [4], the “C4 cleavage IC50 (4% human serum)” value was 0.214 nM.

B4: murine anti-human MASP-2 monoclonal antibody 124 (antibody, V domains shown)
VH: DVQLQESGPGLVKPSQSLSLTCTVTGYSITSDYAWNWIRQFPGNKLEWMGYISYSGRTSYNPSLKSRLSITRDTSKNQFFLQLTSVTTEDTATYYCARHYGDFWGQGTTLTVSS
VL: DIVMTQSQKFMSTSVGDRVSVTCKASQNVDTNVAWFQQKPGQSPKPLIYSASYRYSGVPDRFTGSGSGTDFTLTISNVQSEDLANYFCQQYNSYPSTFGSGTKLEIK
notes: Murine monoclonal antibody purified from hybridoma by Protein G
For orientation: EC50 means the concentration that produces a half-maximal response. With B4, the “IC50 of inhibition … (4% human serum, C4b ELISA)” value in experiment [1] worked out at 0.15 nM. Further, the EC50 with Fc-cyno-MASP-2-CCS is 0.179 nM.

B5: murine anti-human MASP-2 monoclonal antibody 120 (antibody, V domains shown)
VH: DVQLQESGPGLVKPSQSLSLTCTVTGYSITSDYAWSWIRQFLRNKLEWMGYISYSGRTSYNPSLKSRISITRDTSKNQFFLQLNSVTTEDTATYFCARLITGGDYWGQGTSVTVSS
VL: DIVMTQSQKFMSTSVGDRVSVTCKASQNVGINVVWYQQKPGQSPKALIYSASYRFSGVPDRFTGSGSGTDFTLTISNVQSEDLAEYLCLQYDINPLTFGAGTKLELK
notes: as for B4
On to B5, for which, in experiment [1], the “IC50 of inhibition … (4% human serum, C4b ELISA)” value amounted to 0.275 nM. The EC50 with Fc-cyno-MASP-2-CCS is 0.16 nM.

B6: humanized anti-human MASP-2 monoclonal antibody 126-Hu (antibody, human IgG4 S228P, kappa, V domains shown)
VH: QVQLVESGGGVVQPGRSLRLSCAASGFTFSSFGMHWVRQAPGKGLEWVAYISSGSSSSFYVDTVKGRFTISRDNSKNTLYLQMNSLRAEDTAVYYCARGDRNFEVWGQGTTVTVSS
VL: DIQMTQSPSSLSASVGDRVTITCRASQSVSSSRYSYMHWFQQKPGKAPKLLIYHASNLESGVPSRFSGSGSGTDFTLTISSLQPEDFATYYCQQSWEVPWTFGQGTKLEIKR
For B6, in experiment [2], the “IC50 of inhibition of MASP-2-catalyzed C4 cleavage in 90% human serum” value was found to be 3.46 nM and the “IC50 of inhibition of MASP-2-mediated C3b production (4% C1q-removed human serum)” value amounted to 0.494 nM. The “C4 cleavage IC50 (4% human serum)” value in experiment [4] came out at 0.0598 nM.

B7: humanized anti-human MASP-2 monoclonal antibody 136-Hu (antibody, human IgG4 S228P, kappa, V domains shown)
VH: QVQLVQSGAEVKKPGASVKVSCKASGNTFTNYWMHWIRQAPGQGLEWMGYINPNTGYTDFNQKFKDRVTLTADKSTSTAYMELSSLRSEDTAVYYCTLQLGRNFDYWGQGTTVTVSS
VL: DIQMTQSPSSLSASVGDRVTITCRASQSVSSSRSTYIHWYQQKPGKAPKLLIYYSSNLESGVPSRFSGSGSGTDFTLTISSLQPEDFATYYCHQSWEIPYTFGQGTKLEIKR
As for B7, in experiment [4], the “C4 cleavage IC50 (4% human serum)” value amounted to 0.311 nM.

B8: humanized anti-human MASP-2 monoclonal antibody 100-Hu (antibody, human IgG4 S228P, kappa, V domains shown)
VH: QVQLVESGGGVVQPGGSLRLSCAASGFTFSNFGIHWVRQAPGKGLEWVAYISSGGSAVFYADTVKGRFTISRDNSKNTLYLQMNSLRAEDTAVYYCAKSDRYFDYWGQGTTVTVSS
VL: EIVLTQSPATLSLSPGERATLSCRASQSVSSSSYRYIHWYQQKPGQAPRLLIYYASNLESGIPARFSGSGSGTDFTLTISSLEPEDFAVYYCQHSWETPWTFGQGTKLEIKR
As to B8, the “C4 cleavage IC50 (4% human serum)” value in experiment [4] turned out to be 0.281 nM.

B9: murine anti-human MASP-2 monoclonal antibody 100 (antibody, V domains shown)
VH: DVQLVESGGGLVQPGGSRKLSCAASGFTFSNFGIHWVRQAPEKGLEWVAYISSGGSAVFYADTVKGRFTISRDNSKNTLFLQMTSLRSEDTAIYYCAKSDRYFDYWGQGTTLTVSS
VL: DIVLTQSPASLAVSLGQRATISCRASQSVSSSSYRYIHWYQQKPGQPPRLLIKYASNLESGVPARFSGSGSGTDFTLNIHPVEEEDTATYYCQHSWETPWTFGGGTKLEIK
As to B9, the “IC50 of inhibition … (4% human serum, C4b ELISA)” value in experiment [1] worked out at 0.238 nM.

B10: murine anti-human MASP-2 monoclonal antibody 136 (antibody, V domains shown)
VH: QVQLQQSGAELAKPGASVKMSCKASGNTFTNYWMHWIKQRPGQGLEWVGYINPNTGYTDFNQKFKDKATLTADKSSTTAYMQLISLTSEDSTVYYCTLQLGRNFDYWGQGTTLTVSS
VL: DIVLTQSPASLGVSLGQRATISCRASQSVSSSRSTYIHWYQQKPGQPPKLLIKYSSNLESGVPARFSGGGSGTDFTLNIHPVEAEDTATYYCHQSWEIPYTFGGGTKLEIR
Turning to B10, the “IC50 of inhibition … (4% human serum, C4b ELISA)” value in experiment [1] amounted to 0.0757 nM.

B11: murine anti-human MASP-2 monoclonal antibody 60 (antibody, V domains shown)
VH: QVQLQQSGAELMKPGASVKISCKATGYPFSTYWIEWVKQRPGHGLEWIGEILPGSDNTNYNEKFKGKATFTADTSSNTAYMQLSSLTSEDSAVYYCARRTTATRAWFVYWGQGTLVTVSA
VL: DIVMSQSPSSLAVSVGEKVTMSCKSSQSLLYSSNQKNYLAWYQQKPGQSPKLLIYWASTRESGVPDRFTGSGSGTDFTLTISSVRAEDLAVYYCQHYYTYPWTFGGGTNLEIK
notes: as for B4
As for B11, in experiment [1], the “IC50 of inhibition … (4% human serum, C4b ELISA)” value came out at 0.161 nM. Further, the concentration for a half-maximal effect (EC50) with Fc-cyno-MASP-2-CCS came out at 0.096 nM.
